From EP4703390A1

Key:
[1] = target: EGFR and c-Met on the surface of tumor cells (human) (UniProt P00533); test: cell-based or functional assay
[2] = target: EGFR and c-Met on the surface of tumor cells (human) (UniProt P00533); test: flow cytometry, A431 cells; hIgG1 negative control, EC50 could not be fitted
[3] = target: EGFR and c-Met on the surface of tumor cells (human) (UniProt P00533); test: flow cytometry, NCI-H1975 cells; hIgG1 negative control, EC50 could not be fitted
[4] = target: EGFR and c-Met on the surface of tumor cells (human) (UniProt P00533); test: flow cytometry, NCI-H1993 cells; hIgG1 negative control, EC50 could not be fitted

## hIgG1 (Biointron, Cat. No. B117901) (antibody)
[1]
  endocytic activity Top(MFI), A431 cells (negative control): 118000 MFI
  endocytic activity Top(MFI), NCI-H441 cells (negative control): 97500 MFI
  endocytic activity Top(MFI), NCI-H1975 cells (negative control): 110000 MFI
[2]
  Top(MFI): 168000 MFI
[3]
  Top(MFI): 38700 MFI
[4]
  Top(MFI): 31200 MFI
